The values below come from US20120110693, “TARGETING NUCLEIC ACIDS IN MITOCHONDRIA” (published 2012).

Data set [1] deals with T1, pSu9-DHFR (mouse DHFR fused to Neurospora crassa Su9 presequence) (Mus musculus, UniProt P00375 SEQ:1-259).
T1 chain: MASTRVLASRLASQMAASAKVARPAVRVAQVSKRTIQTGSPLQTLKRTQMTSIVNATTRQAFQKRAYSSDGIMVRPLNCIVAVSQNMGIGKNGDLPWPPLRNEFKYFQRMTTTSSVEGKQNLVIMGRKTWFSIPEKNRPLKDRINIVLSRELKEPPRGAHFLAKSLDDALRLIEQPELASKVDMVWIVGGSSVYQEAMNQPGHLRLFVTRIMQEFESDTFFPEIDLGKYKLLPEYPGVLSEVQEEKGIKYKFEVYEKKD
Kind of data set: EMSA; shift increases with protein; legend names pSu9-DHFR, text says DHFR; 10 mM Tris pH 7.5, 50 mM NaCl, 1 mM MgCl2, 25 C. The following applies: label: 32P-UTP; tRNA. Here is the method:
The RNA-protein interaction was studied by means of the shift gel technique. The procedure used is the procedure No. TB110 of Promega, entitled <<gel shift assay system >>. The reaction is conducted in a 9 μL reaction volume comprising: […] of protein, 2 μL of gel shift buffer 5× (20% (v/v) glycerol, 5 mM MgCl₂, 2.5 mM EDTA, 2.5 mM DTT, 250 mM NACl, 50 mM Tris-HCL pH 7.5). The medium is incubated for 10 minutes at room temperature. One μL of radiolabelled tRNA (about 10 fmol corresponding to 20,000 cpm) is then added and the whole is then incubated under mild stirring at 25° C. After migration, the medium is added with one μL of load buffer (250 mM Tris-HCl pH 7.5, 40% (v/v) glycerol). The gel is prepared from a solution of 4% acrylamide/N,N′-methylene bisacrylamide (19/1) in TBE 0.5× buffer (45 mM Tris 45, 1.25 mM EDTA pH 8.3, 45 mM boric acid). The polymerization of the gel is catalyzed by adding 0.04% (w/v) APS and 0.04% (v/v) TEMED. Before charging the samples, the gel is set to a voltage of 350 V for 10 mins. Migration is then carried out for 20 mins at 350 V in the TBE 0.5× buffer. The gel is dried and then exposed against a Phosphorimager plate (Fuji) or subject to autoradiography.
The nucleic acid substrate selected in this case corresponds to the cytosolic tRNAAla of Arabidopsis thaliana (SEQ ID NO: 4). […]
(Mobility shift assays separate free from complexed probe on a gel.)

For a further data set, the target named is pSu9-GFP (UniProt P42212 SEQ:1-307). Briefly: stated unable to interact with tRNAAla; no effect on import. Particulars: label: 32P-UTP; tRNA.
Data set [2] concerns the target DHFR (mouse, recombinant) (Mus musculus, UniProt P00375 SEQ:4-190). Kind of data set: Southwestern blot; 10 mM Tris pH 7.5, 5 mM Mg acetate, 2 mM DTT, 4 C. Particulars: tags: His tag; label: 5'-32P. As for the experimental part:
The DNA substrate selected in this case corresponds to an oligonucleotide (single strand DNA) corresponding to the sequence of cytosolic tRNAAla of A. thaliana (SEQ ID NO: 4). This chemically synthesized oligonucleotide (Sigma Aldrich) and labeled at 5′ was incubated with a membrane onto which the recombinant proteins DHFR and GFP were transferred. No interaction between GFP and the oligonucleotide was observed while a signal was obtained, reflecting an interaction between DHFR and the oligonucleotide.

B1: cytosolic tRNAAla transcript (A. thaliana) (ssRNA)
RNA: GGGGAUGUAGCUCAUAUGGUAGAGCGCUCGCUUUGCAUGCGAGAGGCACAGGGUUCGAUUCCCUGCAUCUCCACCA
Regarding B1, the binding result was “binds” in data set [1] and “no binding” with pSu9-GFP.

B2: tRNAAla-sequence DNA oligonucleotide (ssDNA)
DNA: GGGGATGTAGCTCATATGGTAGAGCGCTCGCTTTGCATGCGAGAGGCACAGGGTTCGATTCCCTGCATCTCCACCA
Turning to B2, the binding result in data set [2] is “binds”.
